In US20230159961A1, “BIOSYNTHESIS OF CHEMICALLY DIVERSIFIED NON-NATURAL TERPENE PRODUCTS” (Board of Trustees of Michigan State University, priority 2019, published 2023):

B1: KgTPS2 (protein, listed as Kitasatospora griseola)
chain: MPDAIEFEHEGRRNPNSAEAESAYSSIIAALDLQESDYAVISGHSRIVGAAALVYPDADAETLLAASLWTACLIVNDDRWDYVQEDGGRLAPGEWFDGVTEVVDTWRTAGPRLPDPFFELVRTTMSRLDAALGAEAADEIGHEIKRAITAMKWEGVWNEYTKKTSLATYLSFRRGYCTMDVQVVLDKWINGGRSFAALRDDPVRRAIDDVVVRFGCLSNDYYSWGREKKAVDKSNAVRILMDHAGYDESTALAHVRDDCVQAITDLDCIEESIKRSGHLGSHAQELLDYLACHRPLIYAAATWPTETNRYR
B2: SsSCS (protein, listed as Salvia sclarea)
chain: MSLAFNVGVTPFSGQRVGSRKEKFPVQGFPVTTPNRSRLIVNCSLTTIDFMAKMKENFKREDDKFPTTTTLRSEDIPSNLCIIDTLQRLGVDQFFQYEINTILDNTFRLWQEKHKVIYGNVTTHAMAFRLLRVKGYEVSSEELAPYGNQEAVSQQTNDLPMIIELYRAANERIYEEERSLEKILAWTTIFLNKQVQDNSIPDKKLHKLVEFYLRNYKGITIRLGARRNLELYDMTYYQALKSTNRFSNLCNEDFLVFAKQDFDIHEAQNQKGLQQLQRWYADCRLDTLNFGRDVVIIANYLASLIIGDHAFDYVRLAFAKTSVLVTIMDDFFDCHGSSQECDKIIELVKEWKENPDAEYGSEELEILFMALYNTVNELAERARVEQGRSVKEFLVKLWVEILSAFKIELDTWSNGTQQSFDEYISSSWLSNGSRLTGLLTMQFVGVKLSDEMLMSEECTDLARHVCMVGRLLNDVCSSEREREENIAGKSYSILLATEKDGRKVSEDEAIAEINEMVEYHWRKVLQIVYKKESILPRRCKDVFLEMAKGTFYAYGINDELTSPQQSKEDMKSFVF
B3: ArTPS3 (protein)
chain: MSLSFTIKVTPFSGQRVHSSTESFPIQQFPTITTKSAMAVKCSSLSTATVSFQDFVGKIRDTINGKVDNSPAATTIHPADIPSNLCVVDTLQRLGVDRYFQSEIDSVLNDTYRFWQQKGEDIFTDVACRAMAFRLLRVKGYEVSSDELASYAEQEHVNLQPSDITTVIELYRASQTRLYEDEGNLEKLHTWTSNFLKQQLQSETISDEKLHKQVEYYLKNYHGILDRAGVRQSLDLYDINQYQNLKSTDRFPTLSNEDLLEFAKQDFNFCQAQHQKELQQLQRWYADCKLDTLTYGRDVVRVASFLTAAIFGEPEFSDARLAFAKHIILVTRIDDFFDHGGSIEESYKILDLVKEWEDKPAEEYPSKEVEILFTAVYNTVNDLAEMAYIEQGRSIKPLLIKLWVEILTSFKKELDSWTEDTELTLEEYLASSWVSIGCRICSLNSLQFLGITLSEEMLSSEECMELCRHVSSVDRLLNDVQTFEKERLENTINSVSLQLAEAQREGRTITEEEAMSKIKDLADYHRRQLMQMVYKDGTIFPRQCKDVFLRVCRIGYYLYASGDEFTTPQQMMGDMKSLVYEPLNTSSS
modifications: Ajuga reptans

Tests used:
[1] = system: Coleus forskohlii CfTPS2 and Salvia sclarea SsSCS; assay: coupled class II / class I in vitro assay with methyl-GGDP (C21) substrate; assay type: biochemical; details: CfTPS2 and SsSCS used together; product structure similar to sclareol (FIG. 10)
Experimental: A typical high-throughput in vitro diTPS assay in lml contained 5 μg substrate, 200 μg purified enzyme (class II plus class I for labdanoid-type diterpenes, or class I for irregular diterpenes), and 10mM buffer with magnesium. Reactions are carried out for 1 hour at 16° C., followed by vortexing with an equal volume of hexane to extract the products into the organic phase, prior to removal for GC/MS analysis.
Reactions leading to novel compounds can be scaled up for structural elucidation. The scale-up procedure involved the same composition. However, in coupled assays of pairs of diTPS, the class II enzyme may be pre-incubated with substrate for two hours, before adding the class I diTPS.
Enzymes Coleus forskohlii CfTPS2 (SEQ ID NO:69) and Salvia sclarea SsSCS (SEQ ID NO:61) were coupled in an in vitro assay to ascertain whether the synthetic unnatural methyl-GGDP (C21) substrate can efficiently yield the corresponding C21 methyl-diterpene.

[2] = system: DgTPS1 (casbene synthase); assay: in vitro diTPS assay: casbene synthase DgTPS1 reacted with unGGPP, products by GC/MS; assay type: biochemical, Daphne genkwa; details: product mass consistent with a methyl-derivative of casbene
Experimental: A conserved irregular, macrocyclic structure is consistent with the fragmentation pattern of the major fragments of casbene (FIG. 5C-5D).
To assess substrate tolerance of class II diTPS, substrates are screened against a panel of twenty-five enzymes. Recombinant diTPS were expressed heterologously in E. coli, purified, and reconstituted in in vitro assays with the substrate to be tested. The products from the enzymatic action on the substrate were analyzed structural elucidation and downstream functionalization.
In particular, pET28b+plasmids containing N-terminally truncated diTPS variants (having the plastidial targeting signal removed to generate pseudomature enzymes) are transformed into E. coli BL-21DE3-C41 OverExpress cells. Cultures are grown at 37° C. and 180 rpm until the optical density at 600 nm reached 0.3 to 0.4. Cultures are cooled to 16° C., and expression is induced at an optical density at 600 nm of approximately 0.6 with 0.2 mM isopropylthiogalactoside. Cells are collected and lysed before purification of the His6-tagged enzymes with Ni-NTA columns.
A typical high-throughput in vitro diTPS assay in lml contained 5 μg substrate, 200 μg purified enzyme (class II plus class I for labdanoid-type diterpenes, or class I for irregular diterpenes), and 10mM buffer with magnesium. […]

[3] = system: class I labdane-type diTPS; assay: class I labdane-type diTPS and tested substrates converted (Table 2); assay type: biochemical; details: decalin-core diphosphate substrates that the enzyme converted, enzymes functionally expressed
Excerpt: Instead of accepting the acyclic GGPP, class I enzymes can use structurally diverse decalin-core diphosphate intermediates generated by class II enzymes. At this stage, additional cyclizations, double-bond-, hydride and alkyl shifts can occur, followed by either proton abstraction or quenching of the final carbocation through a water molecule.
All enzymes in Table 2 were functionally expressed. Microbial sequences were expressed as synthetic variants, expression optimized for E. coli. See also FIG. 7.

Molecule	Substrate (tested substrates converted) [3]	further results
CC(C)=CCC/C(C)=C/CC/C(C)=C/CC/C(C)=C(\C)COP(=O)(O)OP(=O)(O)O [methyl-GGDP (C21)]		product formation in coupled enzyme assay [1]: new methyl-diterpene product
CC(C)=CCC/C(C)=C/CC/C(C)=C/CC/C(C)=C(\C)COP(=O)(O)OP(=O)(O)O [unGGPP]		conversion of substrate to product, detected by gas chromatography / GC-MS [2]: novel product with a shifted retention time
B1	ent-, syn-, (+)-CPP, (+)-8-LPP, ent-8-LPP, KPP, 9-LPP	
B2	ent-, syn-, (+)-CPP, (+)-8-LPP, ent-8-LPP, KPP, 9-LPP	
B3	PgPP, (+)-CPP, (+)-8-LPP, ent-CPP	
